Results taken from PMC5218534, “Structural and biochemical analyses of the DEAD-box ATPase Sub2 in association with THO or Yra1” (eLife, 2017).
Values belong to the molecule of their own block, whether it stands above or below them.

How the values were obtained:
[1] = biological target: T1, Sub2 (full-length) (Saccharomyces cerevisiae, UniProt Q07478); experiment: NADH enzyme-coupled ATPase assay; assay type: biochemical; conditions: 1 mM ATP; 10 µM poly(U) 20-mer RNA; 2 mM MgCl2, pH 7.0, 37 °C; no THO or Yra1
T1 construct: full-length, expressed in E. coli BL21-CodonPlus(DE3)-RIL with N-terminal GST tag removed by TEV
T1 sequence (Q07478 1-446): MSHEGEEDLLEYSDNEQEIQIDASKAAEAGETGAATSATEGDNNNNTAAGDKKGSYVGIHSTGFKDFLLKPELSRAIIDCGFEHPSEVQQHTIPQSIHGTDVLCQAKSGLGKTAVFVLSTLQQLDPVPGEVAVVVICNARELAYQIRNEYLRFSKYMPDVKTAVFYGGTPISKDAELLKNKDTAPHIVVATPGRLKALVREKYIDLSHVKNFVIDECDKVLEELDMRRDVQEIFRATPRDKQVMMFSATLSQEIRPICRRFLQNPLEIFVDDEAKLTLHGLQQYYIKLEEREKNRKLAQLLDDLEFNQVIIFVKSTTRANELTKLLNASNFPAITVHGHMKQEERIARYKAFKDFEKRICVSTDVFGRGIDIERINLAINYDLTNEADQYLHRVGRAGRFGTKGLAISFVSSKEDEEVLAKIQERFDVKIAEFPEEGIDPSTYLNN

[2] = biological target: THO core complex (THO*) (S. cerevisiae | S. bayanus) (UniProt P53552)
[3] = biological target: T2, Sub2 (a.a. 62-446) (S. cerevisiae, UniProt Q07478 62-446); experiment: crystal structure; Sub2 (62-446), Yra1-C* and poly(U) 15-mer RNA mixed 1:1.2:1.2 with 2 mM MgCl2 and ADP•BeF3; sitting drop, 4 °C, 100 mM Bis-Tris pH 5.5, 20% PEG3350, 0.2 M ammonium acetate; 2.6 Å; conditions: both partners purified
T2 construct: source: E. coli BL21-CodonPlus(DE3)-RIL, purified (glutathione sepharose, TEV, mono Q, Superdex 200); not shown: GST, N-terminal, cleaved
T2 sequence (looked up): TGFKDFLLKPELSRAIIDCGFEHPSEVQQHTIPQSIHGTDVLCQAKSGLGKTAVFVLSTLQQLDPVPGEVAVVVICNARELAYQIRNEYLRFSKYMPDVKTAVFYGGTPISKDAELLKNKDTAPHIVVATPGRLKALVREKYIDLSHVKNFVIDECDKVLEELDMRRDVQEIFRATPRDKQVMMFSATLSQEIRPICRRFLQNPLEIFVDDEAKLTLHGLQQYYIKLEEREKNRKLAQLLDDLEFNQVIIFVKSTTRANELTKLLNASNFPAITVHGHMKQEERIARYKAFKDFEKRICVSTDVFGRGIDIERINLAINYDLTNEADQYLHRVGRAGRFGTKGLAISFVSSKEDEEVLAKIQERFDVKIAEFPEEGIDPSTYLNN

[4] = biological target: T3, DEAD-box ATPase Sub2, full length (S. cerevisiae, UniProt Q07478 1-446); experiment: cell-based or functional assay
T3 sequence (looked up): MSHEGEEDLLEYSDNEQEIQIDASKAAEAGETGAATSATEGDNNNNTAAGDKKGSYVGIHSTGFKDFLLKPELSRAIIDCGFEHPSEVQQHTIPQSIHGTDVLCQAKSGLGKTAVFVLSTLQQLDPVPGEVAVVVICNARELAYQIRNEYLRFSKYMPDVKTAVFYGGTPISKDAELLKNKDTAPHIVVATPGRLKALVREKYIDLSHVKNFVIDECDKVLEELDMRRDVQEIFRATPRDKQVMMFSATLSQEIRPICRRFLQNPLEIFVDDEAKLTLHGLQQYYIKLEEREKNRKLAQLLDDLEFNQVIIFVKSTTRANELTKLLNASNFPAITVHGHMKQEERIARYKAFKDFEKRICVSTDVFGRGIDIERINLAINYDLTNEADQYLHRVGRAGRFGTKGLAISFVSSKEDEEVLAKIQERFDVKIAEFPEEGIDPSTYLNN

[5] = biological target: T4, Sub2 (62-446);Yra1-C* (Saccharomyces cerevisiae?;Saccharomyces …, UniProt Q07478;Q12159 62-446;200-226, |); experiment: X-ray crystallography 2.6 A; ADP-BeF3; EMSA: 20 nM RNA, 20 mM HEPES pH 7.0, 100 mM NaCl, 1 mM TCEP, 2 mM MgCl2, 5% glycerol, 0.5 U/ul SUPERase-In, 1 mM nucleotide as indicated; room temperature, 10 min; 5% native PAGE, 45 mM Tris-borate; conditions: protein: recombinant;recombinant; tags: N-terminal GST removed by TEV;N-terminal GST removed by TEV; copies: 1;1; single strand
T4 sequence 1: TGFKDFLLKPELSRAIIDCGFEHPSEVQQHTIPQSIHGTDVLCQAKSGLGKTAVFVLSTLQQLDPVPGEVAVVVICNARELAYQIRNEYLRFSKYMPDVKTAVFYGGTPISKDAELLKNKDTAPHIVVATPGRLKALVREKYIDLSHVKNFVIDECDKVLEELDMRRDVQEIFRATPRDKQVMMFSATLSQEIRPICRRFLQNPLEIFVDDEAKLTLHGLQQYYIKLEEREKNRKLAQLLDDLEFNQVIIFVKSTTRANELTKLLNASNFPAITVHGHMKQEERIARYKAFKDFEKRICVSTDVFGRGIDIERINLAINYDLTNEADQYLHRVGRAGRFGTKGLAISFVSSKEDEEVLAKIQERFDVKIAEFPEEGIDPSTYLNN
T4 sequence 2: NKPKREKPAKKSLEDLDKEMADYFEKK

[6] = biological target: T5, Sub2 (UniProt Q07478 1-446); experiment: EMSA; 1 mM ATP-gamma-S, 2 mM MgCl2; EMSA: 20 nM RNA, 20 mM HEPES pH 7.0, 100 mM NaCl, 1 mM TCEP, 2 mM MgCl2, 5% glycerol, 0.5 U/ul SUPERase-In, 1 mM nucleotide as indicated; room temperature, 10 min; 5% native PAGE, 45 mM Tris-borate; conditions: protein: recombinant; tags: N-terminal GST removed by TEV; label: 5' Alexa488; single strand
T5 sequence: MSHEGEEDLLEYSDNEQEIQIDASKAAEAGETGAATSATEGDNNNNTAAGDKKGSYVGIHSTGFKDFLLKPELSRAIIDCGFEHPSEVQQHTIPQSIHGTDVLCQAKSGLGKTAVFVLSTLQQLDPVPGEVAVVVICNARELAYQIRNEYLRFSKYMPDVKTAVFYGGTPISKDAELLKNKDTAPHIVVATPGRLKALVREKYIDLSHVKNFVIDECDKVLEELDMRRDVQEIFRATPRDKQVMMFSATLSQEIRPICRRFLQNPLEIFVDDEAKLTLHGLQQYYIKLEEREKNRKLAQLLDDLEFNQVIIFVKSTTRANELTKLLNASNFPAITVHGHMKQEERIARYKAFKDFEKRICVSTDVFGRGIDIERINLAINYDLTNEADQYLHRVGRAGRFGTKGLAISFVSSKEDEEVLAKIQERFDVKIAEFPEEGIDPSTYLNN

[7] = biological target: T6, Sub2;Yra1-C (Saccharomyces cerevisiae?;Saccharomyces …, UniProt Q07478;Q12159 1-446;185-226, |); experiment: EMSA; 1 mM ATP-gamma-S, 2 mM MgCl2; Yra1-C promotes Sub2-RNA binding, trimeric complex; EMSA: 20 nM RNA, 20 mM HEPES pH 7.0, 100 mM NaCl, 1 mM TCEP, 2 mM MgCl2, 5% glycerol, 0.5 U/ul SUPERase-In, 1 mM nucleotide as indicated; room temperature, 10 min; 5% native PAGE, 45 mM Tris-borate; conditions: protein: recombinant;recombinant; tags: N-terminal GST removed by TEV;N-terminal GST removed by TEV; copies: 1;1; label: 5' Alexa488; single strand
T6 sequence 1: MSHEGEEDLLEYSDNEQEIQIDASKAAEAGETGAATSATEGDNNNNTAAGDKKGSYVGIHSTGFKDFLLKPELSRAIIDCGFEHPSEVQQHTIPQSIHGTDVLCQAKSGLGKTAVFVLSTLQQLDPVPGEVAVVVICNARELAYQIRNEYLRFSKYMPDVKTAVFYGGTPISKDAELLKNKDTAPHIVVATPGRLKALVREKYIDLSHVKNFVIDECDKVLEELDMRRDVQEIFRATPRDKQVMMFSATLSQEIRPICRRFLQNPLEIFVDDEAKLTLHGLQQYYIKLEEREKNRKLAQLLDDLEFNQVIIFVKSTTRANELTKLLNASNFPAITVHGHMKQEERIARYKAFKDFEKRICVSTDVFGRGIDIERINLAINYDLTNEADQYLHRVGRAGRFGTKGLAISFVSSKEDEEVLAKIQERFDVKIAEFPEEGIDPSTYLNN
T6 sequence 2: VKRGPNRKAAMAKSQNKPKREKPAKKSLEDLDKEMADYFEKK

[8] = biological target: T7, Yra1-C (UniProt Q12159 185-226); experiment: EMSA; Yra1-C without Sub2; EMSA: 20 nM RNA, 20 mM HEPES pH 7.0, 100 mM NaCl, 1 mM TCEP, 2 mM MgCl2, 5% glycerol, 0.5 U/ul SUPERase-In, 1 mM nucleotide as indicated; room temperature, 10 min; 5% native PAGE, 45 mM Tris-borate; conditions: protein: recombinant; tags: N-terminal GST removed by TEV; label: 5' Alexa488; single strand
T7 chain: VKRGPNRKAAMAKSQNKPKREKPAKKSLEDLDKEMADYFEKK

[9] = biological target: T8, Yra1 C-box (UniProt Q12159 208-226); experiment: EMSA; C-box without Sub2; EMSA: 20 nM RNA, 20 mM HEPES pH 7.0, 100 mM NaCl, 1 mM TCEP, 2 mM MgCl2, 5% glycerol, 0.5 U/ul SUPERase-In, 1 mM nucleotide as indicated; room temperature, 10 min; 5% native PAGE, 45 mM Tris-borate; conditions: label: 5' Alexa488; single strand
T8 chain: AKKSLEDLDKEMADYFEKK

Chain of THO core complex (THO*) (S. cerevisiae | S. bayanus) (P53552 whole entry, looked up, one chain of several): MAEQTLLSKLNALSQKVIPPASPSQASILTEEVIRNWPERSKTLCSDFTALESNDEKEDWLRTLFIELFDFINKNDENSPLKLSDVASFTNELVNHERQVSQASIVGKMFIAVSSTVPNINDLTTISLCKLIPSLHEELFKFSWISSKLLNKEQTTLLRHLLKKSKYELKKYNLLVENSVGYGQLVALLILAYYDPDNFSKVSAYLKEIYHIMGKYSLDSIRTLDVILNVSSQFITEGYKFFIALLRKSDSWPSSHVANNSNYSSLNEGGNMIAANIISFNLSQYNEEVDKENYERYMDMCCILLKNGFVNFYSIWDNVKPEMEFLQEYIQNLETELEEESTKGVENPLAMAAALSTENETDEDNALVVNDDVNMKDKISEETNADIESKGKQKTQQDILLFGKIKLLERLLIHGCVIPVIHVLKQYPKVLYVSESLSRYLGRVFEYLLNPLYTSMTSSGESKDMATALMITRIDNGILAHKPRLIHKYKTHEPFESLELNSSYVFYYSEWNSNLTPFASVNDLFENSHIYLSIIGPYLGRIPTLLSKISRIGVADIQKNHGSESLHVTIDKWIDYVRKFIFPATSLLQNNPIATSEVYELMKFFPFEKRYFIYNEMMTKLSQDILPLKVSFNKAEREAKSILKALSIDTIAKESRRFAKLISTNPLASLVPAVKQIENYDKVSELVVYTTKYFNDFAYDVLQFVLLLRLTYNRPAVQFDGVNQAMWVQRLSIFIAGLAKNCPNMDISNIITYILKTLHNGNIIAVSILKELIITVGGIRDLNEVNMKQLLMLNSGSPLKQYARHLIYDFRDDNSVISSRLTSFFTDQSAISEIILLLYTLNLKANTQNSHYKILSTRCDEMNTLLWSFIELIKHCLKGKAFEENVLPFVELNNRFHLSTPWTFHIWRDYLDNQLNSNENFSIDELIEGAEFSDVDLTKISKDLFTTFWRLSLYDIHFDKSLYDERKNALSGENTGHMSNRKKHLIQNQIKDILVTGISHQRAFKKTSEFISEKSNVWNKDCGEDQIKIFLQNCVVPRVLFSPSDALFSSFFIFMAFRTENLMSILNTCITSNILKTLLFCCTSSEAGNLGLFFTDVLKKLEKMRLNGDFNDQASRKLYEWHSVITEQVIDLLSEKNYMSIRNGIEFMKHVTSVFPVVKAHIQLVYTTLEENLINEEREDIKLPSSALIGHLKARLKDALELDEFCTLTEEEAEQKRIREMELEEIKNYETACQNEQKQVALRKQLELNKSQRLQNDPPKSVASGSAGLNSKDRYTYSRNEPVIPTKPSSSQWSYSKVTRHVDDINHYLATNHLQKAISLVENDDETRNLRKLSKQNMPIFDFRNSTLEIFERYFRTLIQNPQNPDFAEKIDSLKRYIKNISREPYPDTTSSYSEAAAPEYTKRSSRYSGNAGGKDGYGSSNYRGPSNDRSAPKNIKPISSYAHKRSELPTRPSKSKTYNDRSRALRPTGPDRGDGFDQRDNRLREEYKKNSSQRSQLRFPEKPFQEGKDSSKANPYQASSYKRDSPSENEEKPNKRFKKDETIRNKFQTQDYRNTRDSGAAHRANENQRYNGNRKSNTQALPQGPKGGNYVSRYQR

Molecule: Nc1ncnc2c1ncn2[C@@H]1O[C@H](COP(=O)(O)OP(=O)(O)OP(=O)(O)O)[C@@H](O)[C@H]1O [ATP]
NADH enzyme-coupled ATPase assay [1]: Sub2 ATPase activity (mole of ADP produced per second per mole of Sub2)

Molecule: VKRGPNRKAAMAKSQNKPKREKPAKKSLEDLDKEMADYFEKK (domain or fragment, S. cerevisiae, UniProt Q12159 185-226, looked up) [C-terminal fragment of Yra1, Yra1-C (a.a. 185-226)]
stimulation of the Sub2 ATPase activity by Yra1-C (NADH-coupled ATPase assay, 2 μM Sub2, 10 μM Yra1, 10 μM poly(U) RNA, 37 °C) [4]: ~2 fold

Molecule: UUUUUUUUUUUUUUU (ssRNA) [poly(U) 15-mer RNA]
binding result [5]: binds

Molecule: UUUUUUUUUUUUUUUUUUUU (ssRNA) [poly(U) 20-mer RNA]
binding result [6]: binds
binding result [7]: binds
binding result [8]: binds
binding result [9]: no binding

Other lines, results leading:

stimulation of the Sub2 ATPase activity by THO* (NADH-coupled ATPase assay, 2 μM Sub2, 2 μM THO, 10 μM poly(U) RNA, 37 °C) [2]: 3.5 fold
B1: DEAD-box ATPase Sub2, full length (enzyme)
chain: MSHEGEEDLLEYSDNEQEIQIDASKAAEAGETGAATSATEGDNNNNTAAGDKKGSYVGIHSTGFKDFLLKPELSRAIIDCGFEHPSEVQQHTIPQSIHGTDVLCQAKSGLGKTAVFVLSTLQQLDPVPGEVAVVVICNARELAYQIRNEYLRFSKYMPDVKTAVFYGGTPISKDAELLKNKDTAPHIVVATPGRLKALVREKYIDLSHVKNFVIDECDKVLEELDMRRDVQEIFRATPRDKQVMMFSATLSQEIRPICRRFLQNPLEIFVDDEAKLTLHGLQQYYIKLEEREKNRKLAQLLDDLEFNQVIIFVKSTTRANELTKLLNASNFPAITVHGHMKQEERIARYKAFKDFEKRICVSTDVFGRGIDIERINLAINYDLTNEADQYLHRVGRAGRFGTKGLAISFVSSKEDEEVLAKIQERFDVKIAEFPEEGIDPSTYLNN

binding result [3]: binds
B2: truncated Yra1-C (Yra1-C*, a.a. 200-226) (domain or fragment, S. cerevisiae, UniProt Q12159 200-226, looked up)
chain: NKPKREKPAKKSLEDLDKEMADYFEKK
notes: source: E. coli BL21-CodonPlus(DE3)-RIL, purified (glutathione sepharose, TEV, mono S, Superdex 200); not shown: GST, N-terminal, cleaved
